The values that follow come from paper PMC8531034, “Structural insights into RNA polymerase III-mediated transcription termination through trapping poly-deoxythymidine” (Nature Communications, 2021).

B1: RPC10, subunit of human RNA polymerase III (natural protein)
chain: not shown
notes: RPC10 of human RNA polymerase III, with N-terminal ribbon domain (N-ribbon) and C-terminal ribbon domain (C-ribbon); Subunit of the 17-subunit Pol III complex; also called C11 (yeast equivalent); source: Expi293F cells, transiently expressed, purified to homogeneity as part of the recombinant human Pol III complex
B2: RPC4-RPC5 dimer module of human RNA polymerase III (complex)
chain 1: MSEGNAAGEPSTPGGPRPLLTGARGLIGRRPAPPLTPGRLPSIRSRDLTLGGVKKKTFTPNIISRKIKEEPKEEVTVKKEKRERDRDRQREGHGRGRGRPEVIQSHSIFEQGPAEMMKKKGNWDKTVDVSDMGPSHIINIKKEKRETDEETKQILRMLEKDDFLDDPGLRNDTRNMPVQLPLAHSGWLFKEENDEPDVKPWLAGPKEEDMEVDIPAVKVKEEPRDEEEEAKMKAPPKAARKTPGLPKDVSVAELLRELSLTKEEELLFLQLPDTLPGQPPTQDIKPIKTEVQGEDGQVVLIKQEKDREAKLAENACTLADLTEGQVGKLLIRKSGRVQLLLGKVTLDVTMGTACSFLQELVSVGLGDSRTGEMTVLGHVKHKLVCSPDFESLLDHKHR
chain 2: MANEEDDPVVQEIDVYLAKSLAEKLYLFQYPVRPASMTYDDIPHLSAKIKPKQQKVELEMAIDTLNPNYCRSKGEQIALNVDGACADETSTYSSKLMDKQTFCSSQTTSNTSRYAAALYRQGELHLTPLHGILQLRPSFSYLDKADAKHREREAANEAGDSSQDEAEDDVKQITVRFSRPESEQARQRRVQSYEFLQKKHAEEPWVHLHYYGLRDSRSEHERQYLLCPGSSGVENTELVKSPSEYLMMLMPPSQEEEKDKPVAPSNVLSMAQLRTLPLADQIKILMKNVKVMPFANLMSLLGPSIDSVAVLRGIQKVAMLVQGNWVVKSDILYPKDSSSPHSGVPAEVLCRGRDFVMWKFTQSRWVVRKEVATVTKLCAEDVKDFLEHMAVVRINKGWEFILPYDGEFIKKHPDVVQRQHMLWTGIQAKLEKVYNLVKETMPKKPDAQSGPAGLVCGDQRIQVAKTKAQQNHALLERELQRRKEQLRVPAVPPGVRIKEEPVSEEGEEDEEQEAEEEPMDTSPSGLHSKLANGLPLGRAAGTDSFNGHPPQGCASTPVARELKAFVEATFQRQFVLTLSELKRLFNLHLASLPPGHTLFSGISDRMLQDTVLAAGCKQILVPFPPQTAASPDEQKVFALWESGDMSDQHRQVLLEIFSKNYRVRRNMIQSRLTQECGEDLSKQEVDKVLKDCCVSYGGMWYLKGTVQS
notes: RPC4 of human RNA polymerase III (dimer module); RPC5 of human RNA polymerase III (dimer module; holds the hotspot); the mammal-specific C-terminal domain was not seen in the PTC map; Named throughout as a heterodimer; Part of the 17-subunit Pol III complex; also called RPC4-5; C53-C37 (yeast equivalent); source: Expi293F cells, transiently expressed, purified to homogeneity as part of the …
B3: RPC2, subunit of human RNA polymerase III (natural protein)
chain: MDVLAEEFGNLTPEQLAAPIPTVEEKWRLLPAFLKVKGLVKQHIDSFNYFINVEIKKIMKANEKVTSDADPMWYLKYLNIYVGLPDVEESFNVTRPVSPHECRLRDMTYSAPITVDIEYTRGSQRIIRNALPIGRMPIMLRSSNCVLTGKTPAEFAKLNECPLDPGGYFIVKGVEKVILIQEQLSKNRIIVEADRKGAVGASVTSSTHEKKSRTNMAVKQGRFYLRHNTLSEDIPIVIIFKAMGVESDQEIVQMIGTEEHVMAAFGPSLEECQKAQIFTQMQALKYIGNKVRRQRMWGGGPKKTKIEEARELLASTILTHVPVKEFNFRAKCIYTAVMVRRVILAQGDNKVDDRDYYGNKRLELAGQLLSLLFEDLFKKFNSEMKKIADQVIPKQRAAQFDVVKHMRQDQITNGMVNAISTGNWSLKRFKMDRQGVTQVLSRLSYISALGMMTRISSQFEKTRKVSGPRSLQPSQWGMLCPSDTPEGEACGLVKNLALMTHITTDMEDGPIVKLASNLGVEDVNLLCGEELSYPNVFLVFLNGNILGVIRDHKKLVNTFRLMRRAGYINEFVSISTNLTDRCVYISSDGGRLCRPYIIVKKQKPAVTNKHMEELAQGYRNFEDFLHESLVEYLDVNEENDCNIALYEHTINKDTTHLEIEPFTLLGVCAGLIPYPHHNQSPRNTYQCAMGKQAMGTIGYNQRNRIDTLMYLLAYPQKPMVKTKTIELIEFEKLPAGQNATVAVMSYSGYDIEDALVLNKASLDRGFGRCLVYKNAKCTLKRYTNQTFDKVMGPMLDAATRKPIWRHEILDADGICSPGEKVENKQVLVNKSMPTVTQIPLEGSNVPQQPQYKDVPITYKGATDSYIEKVMISSNAEDAFLIKMLLRQTRRPEIGDKFSSRHGQKGVCGLIVPQEDMPFCDSGICPDIIMNPHGFPSRMTVGKLIELLAGKAGVLDGRFHYGTAFGGSKVKDVCEDLVRHGYNYLGKDYVTSGITGEPLEAYIYFGPVYYQKLKHMVLDKMHARARGPRAVLTRQPTEGRSRDGGLRLGEMERDCLIGYGASMLLLERLMISSDAFEVDVCGQCGLLGYSGWCHYCKSSCHVSSLRIPYACKLLFQELQSMNIIPRLKLSKYNE
notes: RPC2, second largest subunit of human RNA polymerase III (catalytic core; lobe, protrusion, fork loops 1 and 2); Subunit of the 17-subunit Pol III complex; source: Expi293F cells, transiently expressed, purified to homogeneity as part of the recombinant human Pol III complex

Test [1] concerns the target B3. As to the kind of experiment: cryo-EM structure; recombinant human Pol III (17 subunits) assembled with a DNA-RNA scaffold with seven dT in the non-template strand, 1:2 molar ratio, dialysed in 20 mM HEPES pH 8.0, 150 mM NaCl, 2 mM MgCl2, 2 mM DTT; 3D classification gave two states, PTC (3.6 Å, core 3.3 Å) and EC (3.6 Å). As to conditions: both partners purified.
The target of test [2] is T1, RPC1, subunit of human RNA polymerase III (human, UniProt O14802 1-1390).
T1 construct: RPC1, largest subunit of human RNA polymerase III (catalytic core); Subunit of the 17-subunit Pol III complex; source: Expi293F cells, transiently expressed, purified to homogeneity as part of the recombinant human Pol III complex
T1 sequence: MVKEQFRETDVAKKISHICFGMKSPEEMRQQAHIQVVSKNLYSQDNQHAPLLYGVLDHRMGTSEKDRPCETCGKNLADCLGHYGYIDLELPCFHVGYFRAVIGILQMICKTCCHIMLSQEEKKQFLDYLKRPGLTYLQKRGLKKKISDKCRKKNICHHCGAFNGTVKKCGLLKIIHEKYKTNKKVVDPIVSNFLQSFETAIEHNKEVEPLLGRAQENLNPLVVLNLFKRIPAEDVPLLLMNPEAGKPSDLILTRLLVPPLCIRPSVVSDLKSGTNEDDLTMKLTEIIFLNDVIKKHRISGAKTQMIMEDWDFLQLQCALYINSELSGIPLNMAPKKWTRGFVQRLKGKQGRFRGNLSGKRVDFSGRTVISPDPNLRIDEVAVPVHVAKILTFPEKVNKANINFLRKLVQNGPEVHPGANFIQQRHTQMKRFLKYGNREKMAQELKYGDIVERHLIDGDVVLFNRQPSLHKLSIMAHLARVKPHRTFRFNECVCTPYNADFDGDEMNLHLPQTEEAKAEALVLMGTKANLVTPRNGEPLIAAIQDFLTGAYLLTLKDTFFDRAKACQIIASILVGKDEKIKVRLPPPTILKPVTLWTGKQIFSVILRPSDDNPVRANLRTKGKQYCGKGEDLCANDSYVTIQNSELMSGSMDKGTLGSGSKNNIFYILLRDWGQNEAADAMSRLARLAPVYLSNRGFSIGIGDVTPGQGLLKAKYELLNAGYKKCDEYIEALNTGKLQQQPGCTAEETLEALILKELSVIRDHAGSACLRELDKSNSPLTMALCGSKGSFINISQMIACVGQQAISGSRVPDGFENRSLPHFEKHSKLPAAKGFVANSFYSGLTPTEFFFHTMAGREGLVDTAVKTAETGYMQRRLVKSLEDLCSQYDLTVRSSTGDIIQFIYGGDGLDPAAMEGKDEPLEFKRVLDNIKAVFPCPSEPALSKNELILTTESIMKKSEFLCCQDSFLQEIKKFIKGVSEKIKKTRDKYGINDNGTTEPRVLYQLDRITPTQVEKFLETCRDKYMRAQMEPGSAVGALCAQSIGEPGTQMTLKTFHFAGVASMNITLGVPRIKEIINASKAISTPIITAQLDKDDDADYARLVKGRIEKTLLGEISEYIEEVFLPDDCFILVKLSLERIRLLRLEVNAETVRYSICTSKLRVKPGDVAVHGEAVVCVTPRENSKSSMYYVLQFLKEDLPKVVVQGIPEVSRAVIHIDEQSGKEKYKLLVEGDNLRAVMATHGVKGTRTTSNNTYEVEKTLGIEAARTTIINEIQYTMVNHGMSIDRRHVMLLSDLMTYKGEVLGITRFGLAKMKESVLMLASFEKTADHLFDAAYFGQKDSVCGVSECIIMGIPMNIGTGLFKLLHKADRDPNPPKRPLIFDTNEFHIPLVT
The description is as above. As to conditions: both partners purified.

For the molecule B1, in test [1], the binding result is listed as “binds”. As for B2, in test [1], the binding result is listed as “binds”. Take B3: the binding result in test [2] was “binds”.
